Reference: patent publication US20240059758A1 (CORAT THERAPEUTICS, published 2024)

Legend:
[1] = biological target: T1, SARS-CoV-2 glycoprotein S (spike) on infectious virus (SARS-CoV-2, UniProt P0DTC2 14-1273); assay: cell-based or functional assay
[2] = biological target: receptor binding domain (RBD) of the S1-subunit of SARS-CoV-2 glycoprotein S (SARS-CoV-2, UniProt P0DTC2 319-541); assay: titration ELISA, IgG on RBD
S1-His [3] = biological target: T2, S1-His (SARS-CoV-2, UniProt P0DTC2 16-685); assay: BLI, antibody on FAB2G capture sensor, S1-His in solution
[4] = biological target: T1, SARS-CoV-2 glycoprotein S (spike) on …; assay: cell-based or functional assay; remark: listed apart in the source
S1-His [5] = biological target: T2, S1-His; assay: BLI, antibody on Protein A sensor, S1-His in solution
[6] = biological target: S1-subunit of the SARS-CoV-2 glycoprotein S (SARS-CoV-2, UniProt P0DTC2 16-685); assay: titration ELISA, IgG on S1

B1: STE90-C11 (IgG) (antibody, V domains shown)
VH: QVQLVESGGGLVQPGGSLRLSCAASGLTVSSNYMSWVRQAPGKGLEWVSVIYSGGSTYYADSVKGRFTISRDDSKNTLYLQMNSLRAEDTAVYYCARDVADAFDIWGQGTMVTVSS
VL: DIVMTQSPSFLSASVGDRVTITCRASQGISSYLAWYQQKPGKAPKLLIYAASTLQSGVPSRFSGSGSGTEFTLTISSLQPEDFATYYCQQLNSYPPFTFGPGTKVDIK
B1 gave a Neutralization [1] of 0.56 nM, an EC50 [2] of 0.3 nM and a Kd (S1-His [3]) of 1.56 nM. The “Virus neutralization (24-well titration) TCID50 (IgG)” value [4] was 0.56 nM, the “Virus neutralization (96-well titration) TCID50 (IgG)” value [4] was 0.91 nM and the Kd (S1-His [5]) was 6.53 nM. The EC50 [6] was 0.3 nM.
